Literature values, collected in paper PMC4859893.

Target: EGFR (Homo sapiens) (UniProt P00533)

Kd: 2 nM
Substance: EGF (from UniProt P01133)
